# Reference: the nanobody polyreactivity screen of Harvey et al. (2022)
# Assay: yeast display, Sf9 membrane polyspecificity reagent, FACS + sequencing; frameworks hold sequencing errors
# Method in brief: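 Synthetic nanobody libraries on Saccharomyces cerevisiae BJ5465 were galactose-induced for 36–48 hours, stained 1 hour at 4 °C with 10% biotinylated, detergent-solubilized Sf9 membrane reagent and enriched on streptavidin microbeads. FACS then separated cells into low and high (top ~1%) gates by anti-HA (expression) and streptavidin (reagent binding) fluorescence. Genes were colony-PCR amplified, MiSeq 2 × 250 sequenced and CDR-length filtered. A clone's polyreactivity label is that of its gate of origin.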
sequence,measurement,value
QVQLVESGGGLVQAGGSLRLSCAASGSIYYWYTMGWYRQAPGKERELVAAISLSDGRTYYADSVKGRFTISRDNAKNTVYLQMNSLKPEDTAVYYCAADYRDASGYYRYDYWGQGTQVTVSS,polyreactivity (PSR sort gate),low polyreactivity
QVQLVESGGGLVQAGGSLRLSCAASGSTFTYNAMGWYRQAPGKERELVAVIRPGGNTNDADSVKGRFTISRDNAKNTVYLQMNSLKPEDTAVYYCAKYFGNYSIYDYWGQGTQVTVSS,polyreactivity (PSR sort gate),low polyreactivity
QVQLVESGGGLVQAGGSLRLSCAASGRTFQTYAMGWYRQAPGTERELVAAISSDGSTYYADSVKGRFTISRDNATNTVYFQMHSLKPEDTAVYYRNTAIGDKYDYHVRVDYEYWGQGTQVTLSS,polyreactivity (PSR sort gate),low polyreactivity
QVQLVESGGGLVQAGGSLRLSSAASGSIFERYTMAWYRLAPGKERELVAVISTGGGSTNYADSVKGRFTFSRDNAKNTVYLQMNSLKPADTAVYYCAASYGYYRYGYWGQGTQVNVSS,polyreactivity (PSR sort gate),high polyreactivity
QVQLVESGGGLVQAGGSLRLSCAASGRTFYRYSMGWYRQAPGKERELVAGISTRGGSTYYADSVKGRFTISRDNAKNTVYLQMNSLKPEDTAVYYCAAAPLAFRYDYWGQGTHVTVSS,polyreactivity (PSR sort gate),high polyreactivity
QVQLVESGGGLVQAGGSLRISCAASGSIFHTYAMGWYRQAPGKERELVAAITVSGGDTYYADSVKGRFTISRDNAKNTVYLQMHSLKPEDTAVYYCAVDTTTSYTVEYDYWGQGTQVTVSS,polyreactivity (PSR sort gate),low polyreactivity
QVQLVESGGGLVQAGGSLRLSCAASGSTFDINAMGWYRQAPGKERELVAAINWSGDSTYYADSVKGRFTISRDTAKNTVYLQMNSLKPEDTAVYYCNADTIVAWFDIFEEMDSWGQGTQVTVSS,polyreactivity (PSR sort gate),low polyreactivity
QVQLVESGGGLVQAGGSLRLSCAASGSIFSTNDMGWYRQAPGKERELVAAISVSGGSTYYADSVKGRFTISRDNAKNTVYLQMNSLKPEDTAVYYCNADYTRGTMYYWGQGTQVTGSS,polyreactivity (PSR sort gate),low polyreactivity
QVQLVESGGGLVQAGGSLRLSSAASGSIFLVNAMGWYRQAPGKERELVAAINSGGSTYYADSVKGRFTISRDNAKNTVYLQMNSLKPEDTAVYYCAADFWLKVWQDTDYDFDYWGQGTQVTVSS,polyreactivity (PSR sort gate),low polyreactivity
QVQLVESGGGLVQAGGSLRLSCAASGLIFAYNTMGWYRQAPGKERELVAGITSSGSTYYADSVKGRFTISRDNEKNTVYLQMNSLKPEDTAVYYCAAEWDDGRSWYWYYLVGFEYWGQGTQVTVSS,polyreactivity (PSR sort gate),high polyreactivity
QVQLLESGGGLVQAGGSLRLSCAASGSTFKKNAMGWYRQAPGKETELVAAISGIGTRTSYADSLKGRFTISRDNAKNTVYLQMNRLKPEDTAVYYCAARYYGFPSTLKYDYWGQGTQVTVSS,polyreactivity (PSR sort gate),high polyreactivity
QVQLVESGGGLVQAGGSLRLSCAASGFTFAGYAMGWYRQAPGKERELVAPINRGGSTYYADSVKGRFTISRDNAKNTVYLQMNSLKQEDTAVYYCADRQEPGWYPDVWWEYDYWGQGTQVTVSS,polyreactivity (PSR sort gate),low polyreactivity
QVQLVESSGGLVQAGGSLRLRCAASGMISEYNAMGWSRQAPGKERELVAAITWNGGSTFYADSVKGRFTISRDNAKNTVYLQMNSLKPEDTAVYYCNKTRLEPEYGYWGQGTQVTVSS,polyreactivity (PSR sort gate),low polyreactivity
QVQLVESGGGLVQAGGSLRLSCAASGLIFYGNAMGWYRQSPGKDRELVAAISRRGGRTYYADSVKGRFTISRDNAENTVYLQMNSLKPEDTAVYYCSAQYSYPYYKVTLYYWGQGTQVTVSS,polyreactivity (PSR sort gate),high polyreactivity
QGQLVESGGALVQAGGSLRLSCAASGSTFVRNAMGWYRPAPRKERELVAAISNVGSTYYADSVKGRFTISRDNAKNTVYFQKNSLKPEDTAVYYCTKQLWYHKFNYWGQGTQVTVSS,polyreactivity (PSR sort gate),low polyreactivity
QVQLVESGGGLVQAGGSLRLSCAASGRTFNSNAMGWYRQAPGKERELVAAISGSGGSTYYADSVKGRFTISRDNAKNTVYLQMNSLKPEDTAVYYCAAAARQWKKYDYWGQGTQVTVSS,polyreactivity (PSR sort gate),high polyreactivity
QVQLGESGGGLVQAGGSLRLSCAASGRTFYINTMGWYRQAPGKEREFVAAISSGGGRTYYADSVKGRFTISRDNAKNTVYLQMNSLKPEDTAVYYCAAYLGGAEDTYRFGYWGQGTQVTVSS,polyreactivity (PSR sort gate),high polyreactivity
